Results from the supplement of paper PMC9112550, “Optimization of the antimicrobial peptide Bac7 by deep mutational scanning” (BMC Biology, 2022).

System: Escherichia coli TOP10
Experiment: shrunken log2 fold change of peptide-encoding DNA abundance (4.5 h post-induction vs induction); higher = less antimicrobial activity (less host growth inhibition)
Settings: time post-induction: 4.5 h; library: site-saturation at positions 5, 18, 19, 20
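Note: peptides expressed intracellularly from a pBAD plasmid library in pooled LB shake-flask culture, induced with 0.3% L-arabinose, DNA abundance read by NGS, three biological replicates, DESeq2 with apeglm shrinkage.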

Sequence | shrunken log2 fold change
RRIRHRPPRLPRPRPRPNYTPRP | -0.529
RRIRIRPPRLPRPRPRPNHEPRP | 0.042
RRIRVRPPRLPRPRPRPHIWPRP | -0.244
RRIRHRPPRLPRPRPRPQCNPRP | -0.169
RRIRKRPPRLPRPRPRPWIEPRP | 0.00935
RRIRSRPPRLPRPRPRPFYKPRP | -0.426
RRIRQRPPRLPRPRPRPNNFPRP | -0.17
RRIRIRPPRLPRPRPRPSAFPRP | -0.15
RRIRERPPRLPRPRPRPRWMPRP | 0.0378
RRIRRRPPRLPRPRPRPIPPPRP | 0.452
RRIRVRPPRLPRPRPRPKEGPRP | 0.0282
RRIRRRPPRLPRPRPRPFIVPRP | -0.0553
RRIRERPPRLPRPRPRPTGPPRP | 0.353
RRIRGRPPRLPRPRPRPYWQPRP | -0.369
RRIRARPPRLPRPRPRPTDWPRP | 0.712
RRIRTRPPRLPRPRPRPIHCPRP | -0.172
RRIRSRPPRLPRPRPRPRHNPRP | -0.324
RRIRRRPPRLPRPRPRPTCKPRP | 0.0874
RRIRFRPPRLPRPRPRPQLLPRP | 0.0217
RRIRSRPPRLPRPRPRPGYHPRP | -0.512
RRIRGRPPRLPRPRPRPQCEPRP | 1.31
RRIRSRPPRLPRPRPRPTCSPRP | 0.0811
RRIRTRPPRLPRPRPRPRHVPRP | 0.0629
RRIRMRPPRLPRPRPRPWLQPRP | -0.000921
RRIRARPPRLPRPRPRPKYIPRP | -0.536

Sequence | shrunken log2 fold change
RRIRMRPPRLPRPRPRPTHRPRP | 0.929
RRIRKRPPRLPRPRPRPVFEPRP | 0.347
RRIRERPPRLPRPRPRPMEGPRP | 0.00131
RRIRNRPPRLPRPRPRPSQFPRP | -0.16
RRIRSRPPRLPRPRPRPWWQPRP | -0.0257
RRIRHRPPRLPRPRPRPGVSPRP | 0.0185
RRIRPRPPRLPRPRPRPYLWPRP | -0.769
RRIRGRPPRLPRPRPRPWITPRP | -0.204
RRIRIRPPRLPRPRPRPRPGPRP | 0.618
RRIRCRPPRLPRPRPRPMRAPRP | 0.919
RRIRNRPPRLPRPRPRPVPWPRP | 0.23
RRIRGRPPRLPRPRPRPVDEPRP | 1.05
RRIRNRPPRLPRPRPRPMLIPRP | -0.0638
RRIRIRPPRLPRPRPRPIADPRP | -0.0882
RRIRLRPPRLPRPRPRPTDLPRP | -0.0813
RRIRWRPPRLPRPRPRPCGEPRP | 0.216
RRIRARPPRLPRPRPRPWPLPRP | -0.0297
RRIRKRPPRLPRPRPRPPIQPRP | 0.304
RRIRARPPRLPRPRPRPKGMPRP | 0.4
RRIRVRPPRLPRPRPRPGKEPRP | -0.0126
RRIRSRPPRLPRPRPRPDYQPRP | -0.242
RRIRARPPRLPRPRPRPKRRPRP | 0.282
RRIRIRPPRLPRPRPRPVYAPRP | -0.517
RRIRDRPPRLPRPRPRPGPSPRP | -0.0742
RRIRIRPPRLPRPRPRPEIMPRP | -0.183

Sequence | shrunken log2 fold change
RRIRDRPPRLPRPRPRPGEEPRP | 0.0844
RRIRRRPPRLPRPRPRPNRMPRP | -0.303
RRIRARPPRLPRPRPRPHRWPRP | 0.0671
RRIRHRPPRLPRPRPRPAIAPRP | 0.0527
RRIRVRPPRLPRPRPRPDKTPRP | -0.0309
RRIRARPPRLPRPRPRPQTCPRP | 0.246
RRIRGRPPRLPRPRPRPHSLPRP | -0.0762
RRIRERPPRLPRPRPRPTIYPRP | 0.00607
RRIRDRPPRLPRPRPRPCHWPRP | -0.00151
RRIRQRPPRLPRPRPRPYAEPRP | -0.0595
RRIRLRPPRLPRPRPRPYWSPRP | -1.41
RRIRWRPPRLPRPRPRPHYWPRP | -0.0704
RRIRIRPPRLPRPRPRPKHTPRP | -0.329
RRIRERPPRLPRPRPRPFQGPRP | 0.0891
RRIRMRPPRLPRPRPRPSFRPRP | 0.142
RRIRTRPPRLPRPRPRPEKKPRP | 0.0368
RRIRIRPPRLPRPRPRPTYMPRP | -0.707
RRIRWRPPRLPRPRPRPQNIPRP | -0.882
RRIRARPPRLPRPRPRPATYPRP | 0.0208
RRIRRRPPRLPRPRPRPELNPRP | 0.312
RRIRNRPPRLPRPRPRPEAWPRP | -0.0397
RRIRGRPPRLPRPRPRPRDWPRP | 1.25
RRIRNRPPRLPRPRPRPFGDPRP | 0.0215
RRIRRRPPRLPRPRPRPSGTPRP | 0.494
RRIRLRPPRLPRPRPRPLESPRP | -0.212

Sequence | shrunken log2 fold change
RRIRQRPPRLPRPRPRPARSPRP | 0.0407
RRIRGRPPRLPRPRPRPHETPRP | -0.022
RRIRLRPPRLPRPRPRPMLNPRP | -0.423
RRIRVRPPRLPRPRPRPNMSPRP | -0.537
RRIRLRPPRLPRPRPRPSWTPRP | -0.0555
RRIRRRPPRLPRPRPRPIALPRP | 0.0331
RRIRWRPPRLPRPRPRPQIQPRP | -0.0544
RRIRTRPPRLPRPRPRPKLIPRP | -0.0765
RRIRIRPPRLPRPRPRPFIVPRP | -0.105
RRIRQRPPRLPRPRPRPQCLPRP | -0.122
RRIRCRPPRLPRPRPRPYTHPRP | -1.19
RRIRHRPPRLPRPRPRPMNMPRP | -0.00968
RRIRLRPPRLPRPRPRPFQFPRP | -0.255
RRIRKRPPRLPRPRPRPFWVPRP | -0.175
RRIRWRPPRLPRPRPRPPLFPRP | 0.42
RRIRGRPPRLPRPRPRPWRVPRP | 0.499
RRIRDRPPRLPRPRPRPVGWPRP | 0.945
RRIRARPPRLPRPRPRPYFIPRP | -0.73
RRIRIRPPRLPRPRPRPKRTPRP | -0.198
RRIRARPPRLPRPRPRPTECPRP | 0.0171
RRIRHRPPRLPRPRPRPNLIPRP | -0.00121
RRIRKRPPRLPRPRPRPITAPRP | 0.235
RRIRSRPPRLPRPRPRPYNWPRP | -0.0406
RRIRHRPPRLPRPRPRPKPRPRP | 0.177
RRIRSRPPRLPRPRPRPYGRPRP | -0.151

Sequence | shrunken log2 fold change
RRIRIRPPRLPRPRPRPLQNPRP | -0.359
RRIRKRPPRLPRPRPRPEGHPRP | 0.0594
RRIRHRPPRLPRPRPRPSVEPRP | -0.2
RRIRTRPPRLPRPRPRPSVRPRP | -0.155
RRIRNRPPRLPRPRPRPYDYPRP | -0.129
RRIRLRPPRLPRPRPRPYSKPRP | -0.434
RRIRGRPPRLPRPRPRPDYGPRP | 0.0184
RRIRFRPPRLPRPRPRPSMCPRP | -0.714
RRIRSRPPRLPRPRPRPIGKPRP | 0.0386
RRIRMRPPRLPRPRPRPPNMPRP | 0.268
RRIRPRPPRLPRPRPRPNYAPRP | -0.0849
RRIRARPPRLPRPRPRPSNVPRP | -0.248
RRIRKRPPRLPRPRPRPYPNPRP | 0.0382
RRIRMRPPRLPRPRPRPIMPPRP | 0.0288
RRIRPRPPRLPRPRPRPQTAPRP | 0.111
RRIRERPPRLPRPRPRPYRLPRP | -0.102
RRIRRRPPRLPRPRPRPADKPRP | -0.121
RRIRYRPPRLPRPRPRPPFTPRP | -0.244
RRIRTRPPRLPRPRPRPGLTPRP | -0.0361
RRIRERPPRLPRPRPRPYQHPRP | -0.106
RRIRQRPPRLPRPRPRPNLCPRP | -0.00174
RRIRHRPPRLPRPRPRPSAWPRP | 0.373
RRIRPRPPRLPRPRPRPEECPRP | -0.105
RRIRERPPRLPRPRPRPRYAPRP | -0.118
RRIRMRPPRLPRPRPRPYKKPRP | -0.161

Sequence | shrunken log2 fold change
RRIRRRPPRLPRPRPRPMRQPRP | 0.202
RRIRQRPPRLPRPRPRPRREPRP | 0.08
RRIRPRPPRLPRPRPRPKEYPRP | -0.356
RRIRARPPRLPRPRPRPHVIPRP | 0.0726
RRIRERPPRLPRPRPRPGETPRP | 0.0954
RRIRMRPPRLPRPRPRPGHNPRP | 0.231
RRIRCRPPRLPRPRPRPSEMPRP | -0.286
RRIRERPPRLPRPRPRPMMLPRP | -0.0415
RRIRDRPPRLPRPRPRPEYRPRP | -0.0165
RRIRPRPPRLPRPRPRPDRYPRP | -0.0207
RRIRHRPPRLPRPRPRPQSNPRP | -0.288
RRIRHRPPRLPRPRPRPHGDPRP | -0.01
RRIRDRPPRLPRPRPRPLKCPRP | 0.055
RRIRVRPPRLPRPRPRPFMYPRP | -0.642
RRIRIRPPRLPRPRPRPKYIPRP | -0.992
RRIRERPPRLPRPRPRPALLPRP | -0.23
RRIRGRPPRLPRPRPRPHLNPRP | 0.0325
RRIRCRPPRLPRPRPRPWMGPRP | 0.439
RRIRKRPPRLPRPRPRPKAIPRP | 0.0275
RRIRWRPPRLPRPRPRPRVQPRP | 0.927
RRIRVRPPRLPRPRPRPDMDPRP | -0.154
RRIRARPPRLPRPRPRPSEIPRP | -0.00993
RRIRFRPPRLPRPRPRPSRQPRP | -0.0117
RRIRIRPPRLPRPRPRPEWQPRP | 0.118
RRIRIRPPRLPRPRPRPMKLPRP | -0.519
